These results are taken from PMC6930080.

The target of this experiment is ATP synthase subunit α (Euglena gracilis). In words: cryo-EM structure; native ATP synthase dimer with bound IF1, co-purified as one complex from E. gracilis mitochondria; 25 mM HEPES/KOH pH 7.5, 25 mM KCl, 15 mM MgOAc2, 2 mM DTT, 0.05% β-DDM; maps: membrane region 2.82 Å, F1/c-ring rotational states 1-3 3.04, 3.14 and 3.92 Å, rotor 3.3 Å, peripheral stalk tip 3.82 Å, consensus dimer 4.32 Å.

For the substance “ATPase inhibitory factor 1 (IF1) (natural protein)”, the percent of particles of rotational state 3 that contain IF1 was found to be 34%.
